B1: Complement factor H (Homo sapiens), P08603 (parent)
chain: MRLLAKIICLMLWAICVAEDCNELPPRRNTEILTGSWSDQTYPEGTQAIYKCRPGYRSLGNVIMVCRKGEWVALNPLRKCQKRPCGHPGDTPFGTFTLTGGNVFEYGVKAVYTCNEGYQLLGEINYRECDTDGWTNDIPICEVVKCLPVTAPENGKIVSSAMEPDREYHFGQAVRFVCNSGYKIEGDEEMHCSDDGFWSKEKPKCVEISCKSPDVINGSPISQKIIYKENERFQYKCNMGYEYSERGDAVCTESGWRPLPSCEEKSCDNPYIPNGDYSPLRIKHRTGDEITYQCRNGFYPATRGNTAKCTSTGWIPAPRCTLKPCDYPDIKHGGLYHENMRRPYFPVAVGKYYSYYCDEHFETPSGSYWDHIHCTQDGWSPAVPCLRKCYFPYLENGYNQNYGRKFVQGKSIDVACHPGYALPKAQTTVTCMENGWSPTPRCIRVKTCSKSSIDIENGFISESQYTYALKEKAKYQCKLGYVTADGETSGSITCGKDGWSAQPTCIKSCDIPVFMNARTKNDFTWFKLNDTLDYECHDGYESNTGSTTGSIVCGYNGWSDLPICYERECELPKIDVHLVPDRKKDQYKVGEVLKFSCKPGFTIVGPNSVQCYHFGLSPDLPICKEQVQSCGPPPELLNGNVKEKTKEEYGHSEVVEYYCNPRFLMKGPNKIQCVDGEWTTLPVCIVEESTCGDIPELEHGWAQLSSPPYYYGDSVEFNCSESFTMIGHRSITCIHGVWTQLPQCVAIDKLKKCKSSNLIILEEHLKNKKEFDHNSNIRYRCRGKEGWIHTVCINGRWDPEVNCSMAQIQLCPPPPQIPNSHNMTTTLNYRDGEKVSVLCQENYLIQEGEEITCKDGRWQSIPLCVEKIPCSQPPQIEHGTINSSRSSQESYAHGTKLSYTCEGGFRISEENETTCYMGKWSSPPQCEGLPCKSPPEISHGVVAHMSDSYQYGEEVTYKCFEGFGIDGPAIAKCLGEKWSHPPSCIKTDCLSLPSFENAIPMGEKKDVYKAGEQVTYTCATYYKMDGASNVTCINSRWTGRPTCRDTSCVNPPTVQNAYIVSRQMSKYPSGERVRYQCRSPYEMFGDEEVMCLNGNWTEPPQCKDSTGKCGPPPPIDNGDITSFPLSVYAPASSVEYQCQNLYQLEGNKRITCRNGQWSEPPKCLHPCVISREIMENYNIALRWTAKQKLYSRTGESVEFVCKRGYRLSSRSHTLRTTCWDGKLEYPTCAKR
partner: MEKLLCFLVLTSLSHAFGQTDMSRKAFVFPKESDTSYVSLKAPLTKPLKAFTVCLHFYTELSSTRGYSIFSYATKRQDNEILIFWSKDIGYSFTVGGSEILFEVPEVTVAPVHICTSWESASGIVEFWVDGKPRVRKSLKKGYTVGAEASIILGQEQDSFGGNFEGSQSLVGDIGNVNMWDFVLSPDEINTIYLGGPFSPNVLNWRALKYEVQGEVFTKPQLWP

Variants of: B1
Conditions: with crp_human CRP

effect of a mutation on the interaction | Variant
decreasing interaction strength | R1215G
decreasing interaction strength | R1210C
decreasing interaction strength | W1183L
decreasing interaction strength | V1197A

Variants of: B1
Conditions: with crp_human CRP
Remark: another data set of the same source

effect of a mutation on the interaction | Variant
disrupting interaction strength | R1203E;R1206E;R1210S;K1230S;R1231A

Variants of: B1
Conditions: with crp_human CRP
Remark: another data set of the same source

effect of a mutation on the interaction | Variant
disrupting interaction strength | R1203E;R1206E;R1210S;K1230S;R1231A

— IntAct's records for PubMed 19680263
